{"source": "the supplement of paper PMC10567573", "parents": {"B1": {"name": "ZNF207 (parent)", "chain": "YQGGPPRPPMGMRPPVMSQGGRY"}}}
{"variants_of": "B1", "assay": "protein stability index of a GFP-peptide fusion (GPS, HEK-293T) (PSI 1-6); higher = more stable", "conditions": "c terminus: native"}
{"variant": "YQGGPPRPPHGMRPPVMSQGGRY", "note": "[M10H]", "protein stability index": 2.34}
{"variant": "YQGGPPRPPVGMRPPVMSQGGRY", "note": "[M10V]", "protein stability index": 2.57}
{"variant": "YQGGPPRPPSGMRPPVMSQGGRY", "note": "[M10S]", "protein stability index": 2.1}
{"variant": "YQGGPPRPPQGMRPPVMSQGGRY", "note": "[M10Q]", "protein stability index": 2.14}
{"variant": "YQGGPPRPPNGMRPPVMSQGGRY", "note": "[M10N]", "protein stability index": 1.82}
{"variant": "YQGGPPRPPLGMRPPVMSQGGRY", "note": "[M10L]", "protein stability index": 1.4}
{"variant": "YQGGPPRPPIGMRPPVMSQGGRY", "note": "[M10I]", "protein stability index": 3.45}
{"variant": "YQGGPPRPPMGMRPPVLSQGGRY", "note": "[M17L]", "protein stability index": 1.52}
{"variant": "YQGGPPRPPMGMRPPVQSQGGRY", "note": "[M17Q]", "protein stability index": 2.56}
{"variant": "YQGGPPRPPMGMRPPVVSQGGRY", "note": "[M17V]", "protein stability index": 1.49}
{"variant": "YQGGPPRPPMGMRPPVGSQGGRY", "note": "[M17G]", "protein stability index": 2.42}
{"variant": "YQGGPPRPPMGMRPPVYSQGGRY", "note": "[M17Y]", "protein stability index": 1.75}
{"variant": "YQGGPPRPPMGMRPPVFSQGGRY", "note": "[M17F]", "protein stability index": 2.17}
{"variant": "YQGGPPRPPMGMRPPVSSQGGRY", "note": "[M17S]", "protein stability index": 2.62}
{"variant": "YQGGPPRPPMGMRPPVCSQGGRY", "note": "[M17C]", "protein stability index": 4}
{"variant": "YQGGPPRPPMGMRPPVWSQGGRY", "note": "[M17W]", "protein stability index": 1.67}
{"variant": "YQGGPPRPPMGMRPPVKSQGGRY", "note": "[M17K]", "protein stability index": 2.85}
{"variant": "YQGGPPRPPMGMRPPVDSQGGRY", "note": "[M17D]", "protein stability index": 2.86}
{"variant": "YQGGPPRPPMGMRPPVMSHGGRY", "note": "[Q19H]", "protein stability index": 4.08}
{"variant": "YQGGPPRPPMGMRPPVMSLGGRY", "note": "[Q19L]", "protein stability index": 1.46}
{"variant": "YQGGPPRPPMGMRPPVMSRGGRY", "note": "[Q19R]", "protein stability index": 2.17}
{"variant": "YQGGPPRPPMGMRPPVMSTGGRY", "note": "[Q19T]", "protein stability index": 2.39}
{"variant": "YQGGPPRPPMGMRPPVMSEGGRY", "note": "[Q19E]", "protein stability index": 2.17}
{"variant": "YQGGPPRPPMGMRPPVMSKGGRY", "note": "[Q19K]", "protein stability index": 2.18}
{"variant": "YQGGPPRPPMGMRPPVMSNGGRY", "note": "[Q19N]", "protein stability index": 2.56}
{"variant": "YQGGPPRPPMGMRPPVMSPGGRY", "note": "[Q19P]", "protein stability index": 1.9}
{"variant": "YQGGPPRPPMGMRPFVMSQGGRY", "note": "[P15F]", "protein stability index": 1.58}
{"variant": "YQGGPPRPPMGMRPSVMSQGGRY", "note": "[P15S]", "protein stability index": 2.23}
{"variant": "YQGGPPRPPMGMRPVVMSQGGRY", "note": "[P15V]", "protein stability index": 3.12}
{"variant": "YQGGPPRPPMGMRPDVMSQGGRY", "note": "[P15D]", "protein stability index": 2.27}
{"variant": "YQGGPPRPPMGMRPHVMSQGGRY", "note": "[P15H]", "protein stability index": 2.71}
{"variant": "YQGGPPRPPMGMRPKVMSQGGRY", "note": "[P15K]", "protein stability index": 1.09}
{"variant": "YQGGPPRPPMGMRPNVMSQGGRY", "note": "[P15N]", "protein stability index": 1.72}
{"variant": "YQGGPPRPPMGMRPTVMSQGGRY", "note": "[P15T]", "protein stability index": 1.61}
{"variant": "YQGGPPRPPMGMRPQVMSQGGRY", "note": "[P15Q]", "protein stability index": 2.65}
{"variant": "YQGGPPRPPMGMRPRVMSQGGRY", "note": "[P15R]", "protein stability index": 2.07}
{"variant": "YQGGPPRPPMGMRPEVMSQGGRY", "note": "[P15E]", "protein stability index": 2.2}
{"variant": "YQGGPPRPPMGMRPPVMSQGHRY", "note": "[G21H]", "protein stability index": 1.77}
{"variant": "YQGGPPRPPMGMRPPVMSQGQRY", "note": "[G21Q]", "protein stability index": 2.1}
{"variant": "YQGGPPRPPMGMRPPVMSQGCRY", "note": "[G21C]", "protein stability index": 2.24}
{"variant": "YQGGPPRPPMGMRPPVMSQGVRY", "note": "[G21V]", "protein stability index": 2.3}
{"variant": "YQGGPPRPPMGMRPPVMSQGSRY", "note": "[G21S]", "protein stability index": 1.82}
{"variant": "YQGGPPRPPMGMRPPVMSQGFRY", "note": "[G21F]", "protein stability index": 1.72}
{"variant": "YQGGPPRPPMGMRPPVMSQGPRY", "note": "[G21P]", "protein stability index": 3.63}
{"variant": "YQGGPPRPPMGMRPPVMSQGTRY", "note": "[G21T]", "protein stability index": 2.74}
{"variant": "YQGGPPRPPMGMRPPVMSQGRRY", "note": "[G21R]", "protein stability index": 2.27}
{"variant": "YQGGPPRPPMGMMPPVMSQGGRY", "note": "[R13M]", "protein stability index": 2.1}
{"variant": "YQGGPPRPPMGMFPPVMSQGGRY", "note": "[R13F]", "protein stability index": 2.23}
{"variant": "YQGGPPRPPMGMIPPVMSQGGRY", "note": "[R13I]", "protein stability index": 2.76}
{"variant": "YQGGPPRPPMGMSPPVMSQGGRY", "note": "[R13S]", "protein stability index": 1.96}
{"variant": "YQGGPPRPPMGMWPPVMSQGGRY", "note": "[R13W]", "protein stability index": 1.79}
{"variant": "YQGGPPMPPMGMRPPVMSQGGRY", "note": "[R7M]", "protein stability index": 1.51}
{"variant": "YQGGPPSPPMGMRPPVMSQGGRY", "note": "[R7S]", "protein stability index": 2.98}
{"variant": "YQGGPPVPPMGMRPPVMSQGGRY", "note": "[R7V]", "protein stability index": 1.66}
{"variant": "YQGGPPRPPMGMRPPVMNQGGRY", "note": "[S18N]", "protein stability index": 2.13}
{"variant": "YQGGPPRPPMGMRPPVMYQGGRY", "note": "[S18Y]", "protein stability index": 1.58}
{"variant": "YQGGPPRPPMGMRPPVMDQGGRY", "note": "[S18D]", "protein stability index": 2.04}
{"variant": "YQGGPPRPPMGMRPPVMWQGGRY", "note": "[S18W]", "protein stability index": 2.56}
{"variant": "YQGGPPRPPMGMRPPVMLQGGRY", "note": "[S18L]", "protein stability index": 2.28}
{"variant": "YQGGPPRPPMGMRPPVMKQGGRY", "note": "[S18K]", "protein stability index": 1.81}
{"variant": "YQGGPPRPPMGMRPPVMHQGGRY", "note": "[S18H]", "protein stability index": 1.44}
{"variant": "YQGGPPRPPMGMRPPVMRQGGRY", "note": "[S18R]", "protein stability index": 2.2}
{"variant": "YQGGPPRPPMGMRPPVMEQGGRY", "note": "[S18E]", "protein stability index": 2.72}
{"variant": "YQGGPPRPPMGMRPPVMPQGGRY", "note": "[S18P]", "protein stability index": 2.08}
{"variant": "YQGGPPRPHMGMRPPVMSQGGRY", "note": "[P9H]", "protein stability index": 1.41}
{"variant": "YQGGPPRPLMGMRPPVMSQGGRY", "note": "[P9L]", "protein stability index": 1.28}
{"variant": "YQGGPPRPAMGMRPPVMSQGGRY", "note": "[P9A]", "protein stability index": 1.83}
{"variant": "YQGGPPRPNMGMRPPVMSQGGRY", "note": "[P9N]", "protein stability index": 1.44}
{"variant": "YQGGPPRPKMGMRPPVMSQGGRY", "note": "[P9K]", "protein stability index": 1.73}
{"variant": "YQGGPPRPTMGMRPPVMSQGGRY", "note": "[P9T]", "protein stability index": 2.49}
{"variant": "YQGGPPRPVMGMRPPVMSQGGRY", "note": "[P9V]", "protein stability index": 1.68}
{"variant": "YQGGPPRPWMGMRPPVMSQGGRY", "note": "[P9W]", "protein stability index": 4.64}
{"variant": "YQGGPPRPMMGMRPPVMSQGGRY", "note": "[P9M]", "protein stability index": 1.12}
{"variant": "YQGGPPRPIMGMRPPVMSQGGRY", "note": "[P9I]", "protein stability index": 2.91}
{"variant": "YQGGPPRPGMGMRPPVMSQGGRY", "note": "[P9G]", "protein stability index": 2.84}
{"variant": "YQGGPPRPRMGMRPPVMSQGGRY", "note": "[P9R]", "protein stability index": 1.87}
{"variant": "YQGGPPRPPMGMRGPVMSQGGRY", "note": "[P14G]", "protein stability index": 2.35}
{"variant": "YQGGPPRPPMGMRCPVMSQGGRY", "note": "[P14C]", "protein stability index": 2.27}
{"variant": "YQGGPPRPPMGMRAPVMSQGGRY", "note": "[P14A]", "protein stability index": 1.47}
{"variant": "YQGGPPRPPMGMRKPVMSQGGRY", "note": "[P14K]", "protein stability index": 1.43}
{"variant": "YQGGPPRPPMGTRPPVMSQGGRY", "note": "[M12T]", "protein stability index": 2.64}
{"variant": "YQGGPPRPPMGVRPPVMSQGGRY", "note": "[M12V]", "protein stability index": 2.79}
{"variant": "YQGGPPRPPMGERPPVMSQGGRY", "note": "[M12E]", "protein stability index": 2.88}
{"variant": "YQGGPPRPPMGIRPPVMSQGGRY", "note": "[M12I]", "protein stability index": 2.25}
{"variant": "YQGGPPRPPMGSRPPVMSQGGRY", "note": "[M12S]", "protein stability index": 2.64}
{"variant": "YQGGPPRPPMGRRPPVMSQGGRY", "note": "[M12R]", "protein stability index": 1.35}
{"variant": "YQGGPPRPPMGGRPPVMSQGGRY", "note": "[M12G]", "protein stability index": 2.05}
{"variant": "YQGGPPRPPMGKRPPVMSQGGRY", "note": "[M12K]", "protein stability index": 2.34}
{"variant": "YQGGPPRPPMYMRPPVMSQGGRY", "note": "[G11Y]", "protein stability index": 2.14}
{"variant": "YQGGPPRPPMPMRPPVMSQGGRY", "note": "[G11P]", "protein stability index": 1.6}
{"variant": "YQGGPPRPPMNMRPPVMSQGGRY", "note": "[G11N]", "protein stability index": 1.97}
{"variant": "YQGGPPRPPMLMRPPVMSQGGRY", "note": "[G11L]", "protein stability index": 1.82}
{"variant": "YQGGPPRPPMCMRPPVMSQGGRY", "note": "[G11C]", "protein stability index": 1.81}
{"variant": "YQGGPPRPPMHMRPPVMSQGGRY", "note": "[G11H]", "protein stability index": 1.43}
{"variant": "YQGGPPRPPMIMRPPVMSQGGRY", "note": "[G11I]", "protein stability index": 2.95}
{"variant": "YQGGPPRPPMSMRPPVMSQGGRY", "note": "[G11S]", "protein stability index": 1.52}
